This is an account of results in the RNAGym collection of RNA variant scans (doi:10.7554/elife.80360).

The labels stand for the following.
B1: Hairpin Ribozyme (parent)
chain: GUCCUCUUUCACGUGCGCGUGAAAGAGAGAAGUGAACCAGAGAAACACACGUUGUGGUAUAUUACCUGGUA

Variants of B1 are the subject of this series. Nature of the series: self-cleavage, relative activity (ratio to wild type); higher = more cleavage; co-transcriptional.
For the variant U33A A71C, the self-cleavage was 0.389.
As for U33A A71U, the figure is 0.137.
For the variant U33C G51A, the self-cleavage turned out to be 0.231.
For U33C G51U, the self-cleavage worked out at 0.144.
Consider A35C U58A, for which the self-cleavage was 0.841.
As for A35C U58G, the figure is 0.954; as for G34A U53A, 1.46; as for G34A U53C, 1.13.
As for G34C A36U, the figure is 0.938; as for G34C A36C, 1.25; as for G34C G42C, 0.907.
Take G34C G42A: the self-cleavage was 0.968.
U33C C65A: the self-cleavage was 0.159.
As for U33C C65G, the figure is 0.138; as for G32U U55G, 0.132; as for G32U U55C, 0.165.
The result for G34A C37A reads 0.534; that for G34C C65A, 1.45.
As for U33C A39U, the figure is 0.0555; as for U33G A35G, 0.126; as for G34A U67A, 0.194.
For the variant A35C A59C, the self-cleavage amounted to 0.258.
The result for A35G A61C reads 0.0992; that for A35G A61U, 0.245.
For G34A G42U, the self-cleavage turned out to be 0.406.
As for U33A U67A, the figure is 0.0848; as for G34U A59C, 0.27.
The result for U33G A64G reads 0.108; that for U33C U52A, 0.162.
As for U33C U52G, the figure is 0.1; as for U33C G69A, 0.0835.
U33C G69C: the self-cleavage came to 0.114.
U33G A41G: the self-cleavage was found to be 0.0864.
Consider A35C G56C, for which the self-cleavage was 0.196.
As for G34U U53G, the figure is 1.58.
As for G34U U53C, the figure is 0.405; as for G34U U53A, 1.46.
With G34U G68A, the self-cleavage amounted to 1.17.
As for G34C G68A, the figure is 0.723; as for G32U U60G, 0.0848; as for U33C A35G, 0.192.
The result for U33C A35C reads 0.12.
The result for U33A C48A reads 0.0899; that for A35G A36C, 0.495; that for A35G A36U, 0.695.
As to U33A G68U, the self-cleavage turned out to be 0.162.
As for G34A A59G, the figure is 0.2.
The result for U33A C65A reads 0.225; that for U33A C65G, 0.225.
Take G34C A44G: the self-cleavage amounted to 0.264.
The result for G34C A44U reads 0.119; that for G34C C50A, 1.1; that for U33G U53A, 0.138.
Regarding U33A U52A, the self-cleavage is 0.122.
Take U33C U53A: the self-cleavage turned out to be 0.198.
The result for G34A U62A reads 0.315; that for U33C U63C, 0.187.
As to A35C A71C, the self-cleavage is 1.27.
With A35C A49U, the self-cleavage came out at 0.119.
As for U33A U63C, the figure is 0.0601.
The result for U33C G56U reads 0.26.
Consider A35C A61C, for which the self-cleavage was determined as 0.151.
As for A35C A61G, the figure is 0.234; as for G34A U52G, 1.09; as for G34C G57U, 0.96.
For G34C G57A, the self-cleavage is 0.427.
The result for G32U U62A reads 0.052; that for G32U U62C, 0.0761.
The result for A35G A39C reads 0.257; that for U33G G51A, 0.118.
As for A35G G68U, the figure is 0.208; as for G34U U70G, 1.48.
Regarding A35C C46G, the self-cleavage is 0.0823.
As for G34U C65U, the figure is 1.3; as for G34U C65A, 1.57.
As to G34C A45C, the self-cleavage came out at 0.0204.
As for G32U U70A, the self-cleavage is 0.111.
Turning to U33A A41U, the self-cleavage worked out at 0.111.
As for G34A G56A, the figure is 0.252; as for A35C U52C, 1.05; as for A35C U52G, 0.728.
With G34U A41C, the self-cleavage came out at 1.55.
The result for G34U A41G reads 0.857; that for G34C U62G, 0.175; that for G34C U62A, 0.471.
As for U33G A47C, the figure is 0.0542; as for U33C U67A, 0.119.
With U33C U67C, the self-cleavage was 0.129.
In the case of U33A G42C, the self-cleavage was found to be 0.14.
A35C A36G: the self-cleavage worked out at 0.683.
Turning to A35C A36U, the self-cleavage was determined as 0.606.
For U33G A43U, the self-cleavage was 0.0768.
As for U33G A43C, the figure is 0.0935; as for G34A U70G, 0.979; as for G34U A36U, 1.52.
As for G34C A49C, the figure is 0.186.
Take G34C A49U: the self-cleavage amounted to 0.743.
In the case of A35G A49U, the self-cleavage was determined as 0.174.
U33A G51C: the self-cleavage came to 0.157.
As for U33C C66A, the figure is 0.0633; as for G34U A43G, 0.125; as for U33G A36U, 0.129.
The result for U33G C50U reads 0.14; that for U33G C50A, 0.123; that for G34A U63C, 0.0965.
The result for U33C A36U reads 0.0847; that for U33C A36C, 0.199; that for A35G A41C, 1.31.
With A35C G51U, the self-cleavage was determined as 1.24.
As for G34U G42U, the figure is 1.17; as for U33C C48G, 0.227; as for U33C C48A, 0.0642.
As for G34A A35C, the figure is 1.43; as for G34A A35G, 1.1.
The result for G32U U58A reads 0.0967.
Regarding A35C A45U, the self-cleavage was found to be 0.0921.
As for A35C A45G, the figure is 0.083; as for G34C A41G, 1.31; as for G34C A41C, 1.47.
The result for G34C A47C reads 1.38; that for A35C A44U, 0.216; that for A35C A44C, 0.0528.
For the variant A35C C48U, the self-cleavage came to 0.101.
The result for A35C G57U reads 0.318; that for A35C G57C, 0.134; that for A35C C38A, 0.201.
As for A35G U58G, the figure is 0.881; as for U33C A71G, 0.241.
The result for U33C A71C reads 0.63; that for A35G A45U, 0.25.
In the case of U33C A45C, the self-cleavage turned out to be 0.124.
The result for U33C A45U reads 0.15; that for U33G C37G, 0.064; that for U33G C37U, 0.267.
As for U33G C37A, the figure is 0.109; as for U33G G57U, 0.2.
As for A35G C37G, the self-cleavage is 0.422.
With A35G C37A, the self-cleavage came to 0.416.
The result for U33C G34C reads 1.28; that for U33C G34A, 0.142.
The result for A35G U55G reads 0.283; that for U33C A61G, 0.0977; that for A35C U67C, 0.217.
Regarding G34U C38A, the self-cleavage was 0.658.
The result for A35C G68A reads 0.279.
The result for A35C G68C reads 0.145; that for G34U A71C, 1.72; that for U33A G56C, 0.11.
As for U33A G57A, the figure is 0.137.
Consider U33A G57C, for which the self-cleavage was determined as 0.157.
Take G34C G56C: the self-cleavage is 0.37.
As for G34C G56U, the figure is 0.331.
As for G34C G56A, the self-cleavage turned out to be 0.737.
Regarding G34U U52A, the self-cleavage is 1.5.
As for G34C U52A, the figure is 1.66.
As for A35C U70A, the figure is 0.805.
As for A35C U70G, the self-cleavage was 0.676.
As to A35C C66G, the self-cleavage worked out at 0.159.
Regarding A35C C66A, the self-cleavage was determined as 0.293.
As for G34A G51C, the figure is 1.15.
The result for G34A G51A reads 1.28.
Consider U33A C66U, for which the self-cleavage came to 0.151.
The result for U33A C66A reads 0.0709; that for U33G C46G, 0.174.
As for U33A A47C, the figure is 0.0723; as for A35C A41U, 1.35; as for U33C A43G, 0.196.
